Reference: publication PMC5624781
pKd: −log10 of the molar value.

Columns and labels:
EEA1 (Homo sapiens) = EEA1 (Homo sapiens) (UniProt Q15075); settings: cited from earlier work
GST-Rabaptin5_(551-862) = GST-Rabaptin5_(551-862) (UniProt Q15276); assay: BLI; BLItz system (ForteBio); 0.5 µM GST-Rabaptin5_(551-862) or GST-EEA1_(36-91) immobilised on anti-GST sensors; GppNHP-loaded Rab5 or mUbRab5 at several concentrations in solution; 50 mM Tris-HCl, 150 mM NaCl, 10 mM MgCl2, 1 mM GppNHP; global fit, Kd = koff/kon
GST-EEA1_(36-91) = GST-EEA1_(36-91) (UniProt Q15075); assay: as above

Row | Substance | pKd (GST-Rabaptin5_(551-862)) | pKd (GST-EEA1_(36-91)) | other results
1 | Rab5 (from UniProt P20339) | – | – | pKd (EEA1 (Homo sapiens)): 5.62
2 | mUbRab5_(K140), chemically conjugated monoubiquitinated Rab5 (ubiquitin G76C disulfide-linked to Rab5 K140C) (from UniProt P0CG48 1-76) | 4.42 | 3.97 | –

Continued by rising pKd (GST-EEA1_(36-91)), values first:

Row | pKd (GST-Rabaptin5_(551-862)) | pKd (GST-EEA1_(36-91)) | Substance | other results
3 | 5.10 | 4.74 | mUbRab5_(K116), chemically conjugated monoubiquitinated Rab5 (ubiquitin G76C disulfide-linked to Rab5 K116C) (from UniProt P0CG48 1-76) | –
4 | 5.10 | 5.24 | Rab5 (unmodified Rab5a) (from UniProt P20339 1-215) (natural protein) | koff (GST-Rabaptin5_(551-862)): 0.0022 s⁻¹; kon (GST-Rabaptin5_(551-862)): 660 M⁻¹ s⁻¹; koff (GST-EEA1_(36-91)): 0.0026 s⁻¹; kon (GST-EEA1_(36-91)): 450 M⁻¹ s⁻¹
5 | – | 5.33 | mUbRab5_(K165), chemically conjugated monoubiquitinated Rab5 (ubiquitin G76C disulfide-linked to Rab5 K165C) (from UniProt P0CG48 1-76) | –
